Data taken from patent US20250353908A1 (ARCELLX, published 2025).

Target: T1, CS1-Fc (human, UniProt Q9NQ25 23-226)
T1 construct: also called recombinant human CS1-Fc; CS1-Fc polypeptide; not shown: Fc portion of CS1-Fc
T1 sequence: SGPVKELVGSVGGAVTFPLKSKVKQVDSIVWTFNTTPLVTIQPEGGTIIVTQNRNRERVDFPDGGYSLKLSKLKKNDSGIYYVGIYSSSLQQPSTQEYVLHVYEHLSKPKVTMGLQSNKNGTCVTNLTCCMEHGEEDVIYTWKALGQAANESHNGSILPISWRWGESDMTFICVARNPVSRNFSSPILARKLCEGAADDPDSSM
Test: SPR (Biacore), adapter protein DD-GS linker-Q26, CS1-Fc target
Excerpt: One or more of the above discussed methods were used to identify the SEQ ID NO: 41-47, 49-61, 91-93 and 96-106 variant CS1 specific D domains. […] In addition to binding human CS1, the CS1DD03, CSDD006 and CS1DD007 D domains are cross-reactive with cyno/rhesus CS1.

Kd: 16 nM
B1: CS1DD021 adapter protein of the format DD-GS linker-Q26 (designed binder)
chain: MGSWDEFNQRLGAFEERLQALGGSEAELAALEKEIAAFESELQAYKGKGNPEVEFLRWYADGIRWELQAYRHN
